Assay results from publication PMC9531181.

Target: covalently linked hexamer of ClpX-ΔN with a single biotinylation site (ClpX6B)
Test: single-molecule TIRF microscopy (dwell time); ClpX6B (10 nM, preincubated with 2 mM ATP) held by streptavidin on biotinylated BSA on DDS-Tween-20 passivated coverslips; 5 nM of ssrA (Cy3) and ssrADD (Cy5) substrates flowed in with 100 uM MTX, 2 mM ATP, 25 ug/ml BSA, Trolox and oxygen scavenger; ClpX reaction buffer (25 mM Hepes pH 7.4, 100 mM KCl, 20 mM MgCl2, 10% glycerol); 30 °C; dwell times fitted with a single exponential

In the case of cpGFP::DHFR::polyG11::ssrA, MTX-bound, the reduction of dwell time against Ref11 is reported as 50%.
